Assay results: patent publication US20230416329A1 (INSTITUTE OF MATERIA MEDICA CHINESE ACADEMY OF MEDICAL …, published 2023)
Bridge positions count the residues as written; N and C are the ends. Square brackets hold non-standard residues; d marks the D form. Ends that are not written are not given here. Hyp = O=C(O)[C@@H]1C[C@@H](O)CN1; hCys = N[C@@H](CCS)C(=O)O; Nle = CCCC[C@H](N)C(=O)O

B1: PCSK9_4 (peptide)
peptide: WEEALDWVCGRATKSIPPICFTVFTS
modifications: disulfide 9-20 (inferred)
notes: A disulfide bond joins the two Cys of the scaffold
B2: PCSK9_2 (peptide)
peptide: TVFTSWEEALDWVCGRATKSIPPICF
modifications: disulfide 14-25 (inferred)
notes: Hybrid of the Pep2-8 analogue with the anti-trypsin scaffold BT9; A disulfide bond joins the two Cys of the scaffold
B3: EC50 (peptide)
peptide: SNGNAVEDGGLCTASIPPQCY
modifications: disulfide 12-20 (inferred)
notes: disulfide bond between the two Cys; peptide name, not a potency value
B4: PCSK9_3 (peptide)
peptide: CGRATKSIPPICFGTVFTSWEEALDWV
modifications: disulfide 1-12 (inferred)
notes: Hybrid with the anti-trypsin scaffold BT9; A disulfide bond joins the two Cys of the scaffold

How the values were obtained:
[1] = target: T1, porcine pancreatic elastase (porcine, UniProt P00772 27-266); experiment: elastase inhibition, AAApNA substrate, OD405
T1 construct: substrate AAApNA
T1 sequence (P00772 27-266 limits assumed): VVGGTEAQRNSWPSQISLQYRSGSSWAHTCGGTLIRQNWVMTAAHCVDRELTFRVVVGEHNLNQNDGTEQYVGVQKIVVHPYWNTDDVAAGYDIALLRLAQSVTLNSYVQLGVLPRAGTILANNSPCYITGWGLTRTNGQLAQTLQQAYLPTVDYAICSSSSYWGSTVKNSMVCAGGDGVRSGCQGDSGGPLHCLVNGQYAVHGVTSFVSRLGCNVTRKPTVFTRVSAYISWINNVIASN

[2] = target: T1, porcine pancreatic elastase; experiment: elastase inhibition, Ki=IC50/(1+S/Km)
PCSK9 protein = target: T2, PCSK9 protein (UniProt Q8NBP7 31-692, limits assumed); experiment: PCSK9-LDLR in vitro binding assay kit, OD450/540; peptide 50 µM, PCSK9 75 ng/mL; inhibition of PCSK9 binding to LDLR
T2 construct: Kit reagent; also called proprotein convertase subtilisin/kexin type 9

bovine trypsin = bovine trypsin (bovine, UniProt P00760 24-246); experiment: trypsin inhibition, BApNA substrate
Sequence of bovine trypsin (P00760 24-246): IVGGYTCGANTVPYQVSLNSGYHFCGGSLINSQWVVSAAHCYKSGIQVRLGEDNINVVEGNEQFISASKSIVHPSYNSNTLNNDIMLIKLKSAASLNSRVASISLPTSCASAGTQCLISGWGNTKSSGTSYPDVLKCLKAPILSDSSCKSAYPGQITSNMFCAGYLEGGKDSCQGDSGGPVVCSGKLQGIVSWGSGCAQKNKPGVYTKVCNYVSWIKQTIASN
Procedure: The substrates N-succinyl-Ala-Ala-Pro-Phe-p-nitroaniline (AAPFpNA), Nα—Benzoyl-L-arginine-4-nitroaniline hydrochloride (BApNA) and N-succinyl-[…] (AAApNA) are used in competitive binding reaction to determine the inhibitory activities against α-chymotrypsin, bovine trypsin, and porcine pancreatic elastase, respectively. Experiments for α-chymotrypsin and bovine trypsin inhibition were measured in 20 mM CaCl₂, 50 mM Tris-HCl buffer (pH 7.8), and that for porcine elastase inhibition was measured in 50 mM Tris-HCl buffer (pH 8.0). The concentration of the peptide was measured using optical density (OD) at 280 nm. The Michaelis constant (Kₘ) of the enzyme hydrolysis substrate is calculated from the initial rate of substrate hydrolysis at 405 nm. The absorbance value of the substrate was measured at 405 nm after complete hydrolysis. All data were processed using nonlinear regression.
(1) Added a total 190 μL of reaction buffer (20 mM CaCl₂ and 50 mM Tris-HCl, pH 7.8) along with different concentrations of anti-trypsin peptides (BTs) into the pre-cooled 96-well plate, followed by preheating at 37° C., and spined down at 500 rpm for 5 min. Next added 10 μL of 1 μM trypsin, incubated at 37° C., and then spined down at 500 rpm for 10 min. Finally, added 5 μL of 50 mM BApNA, and mixed by centrifugation at 500 rpm for 1 min. […] The experiment was performed in triplicate. The blank control only contained the reaction buffer and the substrate as the minimum absorption value (Min OD_{405 nm}). The negative control only contained the reaction buffer, the enzyme and the substrate as the maximum absorption value (Max OD_{405 nm}). […] (2) In the reaction system of 205 μL, the final concentrations of trypsin and BApNA were 50 nM and 1.22 mM, respectively. [0456] (3) Data statistics

| Binder | IC50 [1] | Ki [2] | Inhibitory rate (%) (PCSK9 protein) | IC50 (bovine trypsin) | Ki (bovine trypsin) |
| --- | --- | --- | --- | --- | --- |
| QGADTPPVGGLCTASIPPQCY (disulfide 12-20 (inferred), disulfide bond between the two Cys) [EC49] | 990 nM | 280 nM | – | – | – |
| B1 | – | – | 41.4% | – | – |
| CGI[Nle]TASIPPICQ (disulfide 1-12 (inferred), disulfide bond between the two Cys) [EC32] | 21400 nM | 6110 nM | – | – | – |
| CGLATLSIPPICQ (disulfide 1-12 (inferred), disulfide bond between the two Cys) [EC7] | 33700 nM | 9620 nM | – | – | – |
| CAIATASIPPICQ (disulfide 1-12 (inferred), disulfide bond between the two Cys) [EC45] | 47000 nM | 13400 nM | – | – | – |
| CGILTASIPPICQ (disulfide 1-12 (inferred), disulfide bond between the two Cys) [EC33] | 26500 nM | 7580 nM | – | – | – |
| [hCys]GRATKSIPPIAF[hCys] (disulfide 1-14) [BT29] | – | – | – | 10600 nM | 2260 nM |
| CGRATKSIPPQCY (disulfide 1-12 (inferred)) [BT12] | – | – | – | 8460 nM | 1800 nM |
| CGRATKSIPPIAFC (disulfide 1-14 (inferred)) [BT11] | – | – | – | 2200 nM | 470 nM |
| B2 | – | – | 89.9% | – | – |
| [hCys]GRATKSIPPIAFG[hCys] (disulfide 1-15) [BT33] | – | – | – | 5570 nM | 1190 nM |
| ICTASYPPQCR (disulfide 2-10 (inferred), disulfide bond between the two Cys) [EC27] | 8530 nM | 2440 nM | – | – | – |
| CGRATKSLPPACF (disulfide 1-12 (inferred)) [BT14] | – | – | – | 1650 nM | 350 nM |
| CGRATKSIPPIAFGC (disulfide 1-15 (inferred)) [BT32] | – | – | – | 1540 nM | 330 nM |
| LCTASIPPICQ (disulfide 2-10 (inferred), disulfide bond between the two Cys) [EC12] | 400 nM | 110 nM | – | – | – |
| ICTASIPPQCQ (disulfide 2-10 (inferred), disulfide bond between the two Cys) [EC19] | 1140 nM | 330 nM | – | – | – |
| LCTASNPPICQ (disulfide 2-10 (inferred), disulfide bond between the two Cys) [EC25] | 1050 nM | 300 nM | – | – | – |
| LCTASIPPQCY (disulfide 2-10 (inferred), disulfide bond between the two Cys) [EC1] | 1170 nM | 330 nM | – | – | – |
| ICTASIPPICQ (disulfide 2-10 (inferred), disulfide bond between the two Cys) [EC23] | 250 nM | 70 nM | – | – | – |

| Binder | IC50 [1] | Ki [2] | Inhibitory rate (%) (PCSK9 protein) | IC50 (bovine trypsin) | Ki (bovine trypsin) |
| --- | --- | --- | --- | --- | --- |
| FCTASIPPICQ (disulfide 2-10 (inferred), disulfide bond between the two Cys) [EC24] | 2230 nM | 640 nM | – | – | – |
| YCTASIPPICQ (disulfide 2-10 (inferred), disulfide bond between the two Cys) [EC29] | 920 nM | 260 nM | – | – | – |
| VCTASIPPICQ (disulfide 2-10 (inferred), disulfide bond between the two Cys) [EC22] | 400 nM | 110 nM | – | – | – |
| LCTASIPPICR (disulfide 2-10 (inferred), disulfide bond between the two Cys) [EC21] | 15300 nM | 4370 nM | – | – | – |
| LCTASIPPQCQ (disulfide 2-10 (inferred), disulfide bond between the two Cys) [EC18] | 960 nM | 270 nM | – | – | – |
| LCTLSIPPQCY (disulfide 2-10 (inferred), disulfide bond between the two Cys) [EC2] | 3190 nM | 910 nM | – | – | – |
| YCTASIPPQCY (disulfide 2-10 (inferred), disulfide bond between the two Cys) [EC14] | 7140 nM | 2040 nM | – | – | – |
| ICTASIP[Hyp]ICQ (disulfide 2-10 (inferred), disulfide bond between the two Cys) [EC48] | 550 nM | 160 nM | – | – | – |
| CWTKSIPPKPC (disulfide 1-11 (inferred)) [BT36] | – | – | – | 4650 nM | 990 nM |
| MCTASMPPQCH (disulfide 2-10 (inferred), disulfide bond between the two Cys) [EC26] | 23900 nM | 6840 nM | – | – | – |
| CGAKGTKSIPPICFPD (disulfide 1-13 (inferred)) [BT2] | – | – | – | 3030 nM | 650 nM |
| CGAKATKSIPPICFPD (disulfide 1-13 (inferred)) [BT3] | – | – | – | 680 nM | 140 nM |
| B3 | 970 nM | 280 nM | – | – | – |
| CGRATKSIPPIAC (disulfide 1-13 (inferred)) [BT13] | – | – | – | 31500 nM | 6700 nM |
| GTCTRSIPPICNPN (disulfide 3-11 (inferred)) [BT23] | – | – | – | 1820 nM | 390 nM |
| B4 | – | – | 89.9% | – | – |
| CGRATKS[Nle]PPICF (disulfide 1-12 (inferred)) [BT28] | – | – | – | 290 nM | 60 nM |
| ICTASI[Hyp]PICQ (disulfide 2-10 (inferred), disulfide bond between the two Cys) [EC47] | 400 nM | 110 nM | – | – | – |
